The text below walks through data of patent US20210032299A1.

The target in test [1] is T1, human glucose-dependent insulinotropic polypeptide (GIP) receptor (human), P48546.
T1 chain: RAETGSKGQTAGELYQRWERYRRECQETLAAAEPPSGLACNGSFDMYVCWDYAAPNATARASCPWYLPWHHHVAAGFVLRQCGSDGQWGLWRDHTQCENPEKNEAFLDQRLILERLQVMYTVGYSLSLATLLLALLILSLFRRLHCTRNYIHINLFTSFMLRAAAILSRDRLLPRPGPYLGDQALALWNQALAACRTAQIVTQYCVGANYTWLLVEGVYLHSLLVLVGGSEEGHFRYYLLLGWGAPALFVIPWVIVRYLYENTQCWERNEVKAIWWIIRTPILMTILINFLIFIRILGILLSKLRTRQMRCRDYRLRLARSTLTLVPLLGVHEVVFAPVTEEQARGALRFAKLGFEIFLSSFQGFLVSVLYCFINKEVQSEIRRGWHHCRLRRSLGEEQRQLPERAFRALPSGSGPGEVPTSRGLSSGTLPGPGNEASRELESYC
As to the kind of experiment: SPA, displacement of [125I]-GIP from hGIPR membranes, 0.1% bacitracin.

Test [2] addresses human glucagon receptor (human), P47871. Nature of the test: SPA, displacement of [125I]-Gcg from hGcgR membranes, 0.1% bacitracin. (In general: Displacement assays read how much labelled ligand stays bound in the presence of the test substance.)
The target in test [3] is T2, human GLP-1 receptor (human), P43220.
T2 chain: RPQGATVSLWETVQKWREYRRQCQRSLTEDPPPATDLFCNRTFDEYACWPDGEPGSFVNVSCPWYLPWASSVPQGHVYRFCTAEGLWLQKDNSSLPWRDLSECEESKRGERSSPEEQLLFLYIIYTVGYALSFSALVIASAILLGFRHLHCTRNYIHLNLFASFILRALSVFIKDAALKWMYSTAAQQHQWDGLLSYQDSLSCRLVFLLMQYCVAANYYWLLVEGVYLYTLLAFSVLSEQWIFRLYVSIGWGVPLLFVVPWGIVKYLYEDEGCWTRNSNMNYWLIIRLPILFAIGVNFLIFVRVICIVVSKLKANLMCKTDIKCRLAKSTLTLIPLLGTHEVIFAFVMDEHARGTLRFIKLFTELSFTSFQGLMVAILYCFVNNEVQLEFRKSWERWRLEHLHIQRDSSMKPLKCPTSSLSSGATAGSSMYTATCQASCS
As to the kind of experiment: SPA, displacement of [125I]-GLP-1 from hGLP-1R membranes, 0.1% bacitracin.

Starred links: 1 amine or outer side, 2 acyl side, 3 side chain; linkers in the order of their positions; H or OH if unused. Non-standard residues stand in square brackets, D forms with d. Groups on a side chain read outwards from the residue. No end group written: not given here. *: point of attachment. C20 diacid = O=C(O)CCCCCCCCCCCCCCCCCCC(=O)*; C18 diacid = O=C(O)CCCCCCCCCCCCCCCCC(=O)*; αMePhe(2-F) = C[C@](N)(Cc1ccccc1F)C(=O)O; γGlu = O=C(O)[C@H](CCC(=O)[*:2])N[*:1]; 4Pal = N[C@@H](Cc1ccncc1)C(=O)O; αMeL = CC(C)C[C@](C)(N)C(=O)O; Orn = NCCC[C@H](N)C(=O)O; AEEA = NCCOCCOCC(=O)O; Aib = CC(C)(N)C(=O)O

human glucagon receptor (human), P47871, sequence (P47871 26-477): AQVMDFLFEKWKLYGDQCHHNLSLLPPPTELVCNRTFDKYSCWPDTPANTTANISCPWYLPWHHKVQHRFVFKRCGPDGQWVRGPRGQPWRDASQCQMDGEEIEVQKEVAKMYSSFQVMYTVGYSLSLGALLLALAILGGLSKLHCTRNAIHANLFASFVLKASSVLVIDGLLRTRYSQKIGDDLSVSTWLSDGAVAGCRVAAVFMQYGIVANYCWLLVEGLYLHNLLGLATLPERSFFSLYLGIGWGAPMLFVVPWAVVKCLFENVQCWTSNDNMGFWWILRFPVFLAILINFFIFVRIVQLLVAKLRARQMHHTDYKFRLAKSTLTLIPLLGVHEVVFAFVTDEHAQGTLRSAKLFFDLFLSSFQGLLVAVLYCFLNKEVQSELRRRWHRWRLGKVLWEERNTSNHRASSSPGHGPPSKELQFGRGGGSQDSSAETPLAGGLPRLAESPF

B1: Example 87 (peptide)
peptide: Y[Aib]EGTFISDYSI[αMeL]LD[Orn]K([AEEA-AEEA-γGlu-C18 diacid])HQ[Aib]DFVE[4Pal]LLEAGPSSGAPPPS-NH2
modifications: N-terminus assumed
SMILES: CC[C@H](C)[C@H](NC(=O)[C@H](Cc1ccccc1)NC(=O)[C@@H](NC(=O)CNC(=O)[C@H](CCC(=O)O)NC(=O)C(C)(C)NC(=O)[C@@H](N)Cc1ccc(O)cc1)[C@@H](C)O)C(=O)N[C@@H](CO)C(=O)N[C@@H](CC(=O)O)C(=O)N[C@@H](Cc1ccc(O)cc1)C(=O)N[C@@H](CO)C(=O)N[C@H](C(=O)N[C@@](C)(CC(C)C)C(=O)N[C@@H](CC(C)C)C(=O)N[C@@H](CC(=O)O)C(=O)N[C@@H](CCCN)C(=O)N[C@@H](CCCCNC(=O)COCCOCCNC(=O)COCCOCCNC(=O)CC[C@H](NC(=O)CCCCCCCCCCCCCCCCC(=O)O)C(=O)O)C(=O)N[C@@H](Cc1c[nH]cn1)C(=O)N[C@@H](CCC(N)=O)C(=O)NC(C)(C)C(=O)N[C@@H](CC(=O)O)C(=O)N[C@@H](Cc1ccccc1)C(=O)N[C@H](C(=O)N[C@@H](CCC(=O)O)C(=O)N[C@@H](Cc1ccncc1)C(=O)N[C@@H](CC(C)C)C(=O)N[C@@H](CC(C)C)C(=O)N[C@@H](CCC(=O)O)C(=O)N[C@@H](C)C(=O)NCC(=O)N1CCC[C@H]1C(=O)N[C@@H](CO)C(=O)N[C@@H](CO)C(=O)NCC(=O)N[C@@H](C)C(=O)N1CCC[C@H]1C(=O)N1CCC[C@H]1C(=O)N1CCC[C@H]1C(=O)N[C@@H](CO)C(N)=O)C(C)C)[C@@H](C)CC
On to B1, for which the inhibitory constant (Ki) in test [1] was found to be 0.0538 nM; in test [2], 576 nM; in test [3] it was 849 nM.

B2: Example 115 (peptide)
peptide: Y[Aib]EGTFISDYSI[αMeL]LDKIRQ[Aib]DFVEYK([AEEA-AEEA-γGlu-C20 diacid])LEGGPSSGAPPPS-NH2
modifications: N-terminus assumed
SMILES: CC[C@H](C)[C@H](NC(=O)[C@H](CCCCN)NC(=O)[C@H](CC(=O)O)NC(=O)[C@H](CC(C)C)NC(=O)[C@](C)(CC(C)C)NC(=O)[C@@H](NC(=O)[C@H](CO)NC(=O)[C@H](Cc1ccc(O)cc1)NC(=O)[C@H](CC(=O)O)NC(=O)[C@H](CO)NC(=O)[C@@H](NC(=O)[C@H](Cc1ccccc1)NC(=O)[C@@H](NC(=O)CNC(=O)[C@H](CCC(=O)O)NC(=O)C(C)(C)NC(=O)[C@@H](N)Cc1ccc(O)cc1)[C@@H](C)O)[C@@H](C)CC)[C@@H](C)CC)C(=O)N[C@@H](CCCNC(=N)N)C(=O)N[C@@H](CCC(N)=O)C(=O)NC(C)(C)C(=O)N[C@@H](CC(=O)O)C(=O)N[C@@H](Cc1ccccc1)C(=O)N[C@H](C(=O)N[C@@H](CCC(=O)O)C(=O)N[C@@H](Cc1ccc(O)cc1)C(=O)N[C@@H](CCCCNC(=O)COCCOCCNC(=O)COCCOCCNC(=O)CC[C@H](NC(=O)CCCCCCCCCCCCCCCCCCC(=O)O)C(=O)O)C(=O)N[C@@H](CC(C)C)C(=O)N[C@@H](CCC(=O)O)C(=O)NCC(=O)NCC(=O)N1CCC[C@H]1C(=O)N[C@@H](CO)C(=O)N[C@@H](CO)C(=O)NCC(=O)N[C@@H](C)C(=O)N1CCC[C@H]1C(=O)N1CCC[C@H]1C(=O)N1CCC[C@H]1C(=O)N[C@@H](CO)C(N)=O)C(C)C
For B2, the values for the Ki in test [1] and in test [2] were 0.0997 nM and 373 nM, respectively.

B3: Example 120 (peptide)
peptide: Y[Aib]EGT[αMePhe(2-F)]ISDYSILLDKIHQ[Aib]DFVE[4Pal]K([AEEA-AEEA-γGlu-C20 diacid])LEAGPSSGAPPPS-NH2
modifications: N-terminus assumed
SMILES: CC[C@H](C)[C@H](NC(=O)[C@H](CO)NC(=O)[C@H](Cc1ccc(O)cc1)NC(=O)[C@H](CC(=O)O)NC(=O)[C@H](CO)NC(=O)[C@@H](NC(=O)[C@](C)(Cc1ccccc1F)NC(=O)[C@@H](NC(=O)CNC(=O)[C@H](CCC(=O)O)NC(=O)C(C)(C)NC(=O)[C@@H](N)Cc1ccc(O)cc1)[C@@H](C)O)[C@@H](C)CC)C(=O)N[C@@H](CC(C)C)C(=O)N[C@@H](CC(C)C)C(=O)N[C@@H](CC(=O)O)C(=O)N[C@@H](CCCCN)C(=O)N[C@H](C(=O)N[C@@H](Cc1c[nH]cn1)C(=O)N[C@@H](CCC(N)=O)C(=O)NC(C)(C)C(=O)N[C@@H](CC(=O)O)C(=O)N[C@@H](Cc1ccccc1)C(=O)N[C@H](C(=O)N[C@@H](CCC(=O)O)C(=O)N[C@@H](Cc1ccncc1)C(=O)N[C@@H](CCCCNC(=O)COCCOCCNC(=O)COCCOCCNC(=O)CC[C@H](NC(=O)CCCCCCCCCCCCCCCCCCC(=O)O)C(=O)O)C(=O)N[C@@H](CC(C)C)C(=O)N[C@@H](CCC(=O)O)C(=O)N[C@@H](C)C(=O)NCC(=O)N1CCC[C@H]1C(=O)N[C@@H](CO)C(=O)N[C@@H](CO)C(=O)NCC(=O)N[C@@H](C)C(=O)N1CCC[C@H]1C(=O)N1CCC[C@H]1C(=O)N1CCC[C@H]1C(=O)N[C@@H](CO)C(N)=O)C(C)C)[C@@H](C)CC
For B3, the inhibition constant Ki in test [1] turned out to be 0.171 nM; in test [2] it was 575 nM.

For Y[Aib]EGTFISDYSI[αMeL]LD[Orn]IHQ[Aib]DFVEYK([AEEA-AEEA-γGlu-C20 diacid])LEGGPSSGAPPPS-NH2 [Example 6], the Ki in test [1] is 0.104 nM; in test [2] it was 453 nM; in test [3], 571 nM.

B4: Example 116 (peptide)
peptide: Y[Aib]EGTFISDYSI[αMeL]LD[Orn]IRQ[Aib]DFVEYK([AEEA-AEEA-γGlu-C20 diacid])LEGGPSSGAPPPS-NH2
modifications: N-terminus assumed
SMILES: CC[C@H](C)[C@H](NC(=O)[C@H](CCCN)NC(=O)[C@H](CC(=O)O)NC(=O)[C@H](CC(C)C)NC(=O)[C@](C)(CC(C)C)NC(=O)[C@@H](NC(=O)[C@H](CO)NC(=O)[C@H](Cc1ccc(O)cc1)NC(=O)[C@H](CC(=O)O)NC(=O)[C@H](CO)NC(=O)[C@@H](NC(=O)[C@H](Cc1ccccc1)NC(=O)[C@@H](NC(=O)CNC(=O)[C@H](CCC(=O)O)NC(=O)C(C)(C)NC(=O)[C@@H](N)Cc1ccc(O)cc1)[C@@H](C)O)[C@@H](C)CC)[C@@H](C)CC)C(=O)N[C@@H](CCCNC(=N)N)C(=O)N[C@@H](CCC(N)=O)C(=O)NC(C)(C)C(=O)N[C@@H](CC(=O)O)C(=O)N[C@@H](Cc1ccccc1)C(=O)N[C@H](C(=O)N[C@@H](CCC(=O)O)C(=O)N[C@@H](Cc1ccc(O)cc1)C(=O)N[C@@H](CCCCNC(=O)COCCOCCNC(=O)COCCOCCNC(=O)CC[C@H](NC(=O)CCCCCCCCCCCCCCCCCCC(=O)O)C(=O)O)C(=O)N[C@@H](CC(C)C)C(=O)N[C@@H](CCC(=O)O)C(=O)NCC(=O)NCC(=O)N1CCC[C@H]1C(=O)N[C@@H](CO)C(=O)N[C@@H](CO)C(=O)NCC(=O)N[C@@H](C)C(=O)N1CCC[C@H]1C(=O)N1CCC[C@H]1C(=O)N1CCC[C@H]1C(=O)N[C@@H](CO)C(N)=O)C(C)C
Consider B4, for which the Ki in test [1] is 0.166 nM; in test [2] it was 178 nM.

B5: Example 4 (peptide)
peptide: Y[Aib]EGTFISDYSI[αMeL]LD[Orn]K([AEEA-AEEA-γGlu-C20 diacid])HQ[Aib]DFVE[4Pal]LLEAGPSSGAPPPS-NH2
modifications: N-terminus assumed
SMILES: CC[C@H](C)[C@H](NC(=O)[C@H](Cc1ccccc1)NC(=O)[C@@H](NC(=O)CNC(=O)[C@H](CCC(=O)O)NC(=O)C(C)(C)NC(=O)[C@@H](N)Cc1ccc(O)cc1)[C@@H](C)O)C(=O)N[C@@H](CO)C(=O)N[C@@H](CC(=O)O)C(=O)N[C@@H](Cc1ccc(O)cc1)C(=O)N[C@@H](CO)C(=O)N[C@H](C(=O)N[C@@](C)(CC(C)C)C(=O)N[C@@H](CC(C)C)C(=O)N[C@@H](CC(=O)O)C(=O)N[C@@H](CCCN)C(=O)N[C@@H](CCCCNC(=O)COCCOCCNC(=O)COCCOCCNC(=O)CC[C@H](NC(=O)CCCCCCCCCCCCCCCCCCC(=O)O)C(=O)O)C(=O)N[C@@H](Cc1c[nH]cn1)C(=O)N[C@@H](CCC(N)=O)C(=O)NC(C)(C)C(=O)N[C@@H](CC(=O)O)C(=O)N[C@@H](Cc1ccccc1)C(=O)N[C@H](C(=O)N[C@@H](CCC(=O)O)C(=O)N[C@@H](Cc1ccncc1)C(=O)N[C@@H](CC(C)C)C(=O)N[C@@H](CC(C)C)C(=O)N[C@@H](CCC(=O)O)C(=O)N[C@@H](C)C(=O)NCC(=O)N1CCC[C@H]1C(=O)N[C@@H](CO)C(=O)N[C@@H](CO)C(=O)NCC(=O)N[C@@H](C)C(=O)N1CCC[C@H]1C(=O)N1CCC[C@H]1C(=O)N1CCC[C@H]1C(=O)N[C@@H](CO)C(N)=O)C(C)C)[C@@H](C)CC
B5: the inhibition constant Ki in test [1] turned out to be 0.062 nM; in test [2], 431 nM; in test [3], 423 nM.

One may read the Ki as the dissociation constant of the complex between target and ligand, obtained from inhibition or displacement. Lower therefore signals tighter binding.
